From patent publication US20190055293

Tested on: insulin

| Substance | insulin disulfide reductase activity (turbidity, optical density at A595 nm) |
| --- | --- |
| Thioredoxin protein | The addition of RdCVF (LF) or Trx1 resulted in an increase in optical density at A595 nm |
| purified RdCVF(LF) protein (human rod-derived cone viability factor, long form) | The addition of RdCVF (LF) or Trx1 resulted in an increase in optical density at A595 nm |
